Assay [1] relates to T-lymphocytes in peripheral lymph node high endothelial venules. Kind of assay: Intravital microscopy of lymphocyte behaviour in peripheral lymph node high endothelial venules. Format: in vivo. The settings on record: mouse. The procedure:
Moreover, the ability of the open I-domain mutants to inhibit LFA-1 function in vivo was tested by visualizing microcirculation in the peripheral lymph node (LN) with intravital microscopy. Briefly, a small bolus (20-50 µl) of LN cell suspensions from […] mice were retrogradely injected through a femoral artery catheter and visualized in the subiliac LN by fluorescent epi-illumination from a video-triggered xenon arc stroboscope. After recording control […] cell behavior in the absence of 1-domain, the mouse was pretreated by intra-arterial injection of 1-domain (10 µg/g of weight) 5 minutes before T^GFP cell injection. All scenes were recorded on videotape and off-line analysis was done. The rolling fraction was calculated as percentage of rolling cells amount the total number of TGFβ cells that entered a venule. The sticking (firm adhesion) fraction was determined as the percentage of T^GFP cells becoming firmly adherent for >20 seconds in the number of T^GFP cells that rolled in a venule. Results were semi-quantitatively scored as follows: −: 0%, .+−.: 0-5%, +: 5-20%, ++: 20-40%, +++: 40-60%, ++++: 60-80%, +++++:80-100%.

The target in another assay is T1, ICAM-2 (Homo sapiens, UniProt P13598).
T1 sequence (P13598 25-223 limits assumed): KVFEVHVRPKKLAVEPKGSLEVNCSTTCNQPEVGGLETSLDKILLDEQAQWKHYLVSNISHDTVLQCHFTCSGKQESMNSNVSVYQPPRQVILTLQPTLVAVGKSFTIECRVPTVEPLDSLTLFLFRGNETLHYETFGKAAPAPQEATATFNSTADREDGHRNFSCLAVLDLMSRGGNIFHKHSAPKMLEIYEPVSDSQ
Kind of assay: BIAcore binding of soluble αL I-domains to ICAM-2. The settings on record: 1:1 interaction model. The procedure: (§1) Briefly, recombinant mutant αL I-domain stabilized in the open conformation (K287C/K294C), or recombinant wild-type αL I-domain from amino acid residue G128 to Y307, were cloned into pET11b (Novagen) and expressed in E. coli induced with 1 mM IPTG for 4 hours. The recombinant proteins were purified from inclusion bodies by solubilization of inclusion bodies in 6M guanidine HCl and were refolded by dilution in the presence of 0.1 mM Cu^2+/phenanthrolin to enhance formation of disulfide bonds. Protein was concentrated by ammonium sulfate precipitation, dialyzed, and purified over a monoQ ion-exchange column. […] The recombinant proteins were then purified by gel filtration and concentrated by Centriprep. For BIAcore™ analysis, recombinant ICAM-1, ICAM-2 and ICAM-3 Fc chimeras were immobilized on the BIAcore™ sensor chip by an amine-coupling method. Recombinant αL I-domains were flowed in, and BIAcore™ assays were performed with Tris-buffered saline supplemented with 1 mM MgCl2 or 2 mM EDTA, at a flow rate of 10 μl/minute at 25° C.
Background: In SPR one partner is held on a chip, and binding of the other changes the refractive index at the surface.

In assay [2] the test system is K562 cells stably expressing wild-type LFA-1. In words: Inhibition by soluble I-domains of adhesion of LFA-1 expressing K562 cells to immobilized ICAM-1. In kind it is cell-based, human. The settings on record: LFA-1 activated by CBRLFA-1/2; 40 minutes at 37° C. The procedure: The activity of the soluble open I-domain to inhibit LFA-1I-dependent adhesion was tested. In one study, K562 cells stably expressing wild-type LFA-1 were fluorescently labeled by BCECF and LFA-1 on the cell surface was activated by the activating monoclonal antibody, CBRLFA-1/2 in L15 media supplemented with FCS. The cells were subsequently incubated in ICAM-1 coated 96-well plastic plates in the presence or absence of 1-domains. After incubation for 40 minutes at 37° C., unbound cells were washed off on a Microplate Autowasher. The fluorescence content of total input cells and the bound cells in each well was quantitated on a Fluorescent Concentration Analyzer. The bound cells were expressed as a percentage of total input cells per sample well.

The target of a further assay is T2, ICAM-3 (Homo sapiens, UniProt P32942).
T2 sequence (P32942 30-485 limits assumed): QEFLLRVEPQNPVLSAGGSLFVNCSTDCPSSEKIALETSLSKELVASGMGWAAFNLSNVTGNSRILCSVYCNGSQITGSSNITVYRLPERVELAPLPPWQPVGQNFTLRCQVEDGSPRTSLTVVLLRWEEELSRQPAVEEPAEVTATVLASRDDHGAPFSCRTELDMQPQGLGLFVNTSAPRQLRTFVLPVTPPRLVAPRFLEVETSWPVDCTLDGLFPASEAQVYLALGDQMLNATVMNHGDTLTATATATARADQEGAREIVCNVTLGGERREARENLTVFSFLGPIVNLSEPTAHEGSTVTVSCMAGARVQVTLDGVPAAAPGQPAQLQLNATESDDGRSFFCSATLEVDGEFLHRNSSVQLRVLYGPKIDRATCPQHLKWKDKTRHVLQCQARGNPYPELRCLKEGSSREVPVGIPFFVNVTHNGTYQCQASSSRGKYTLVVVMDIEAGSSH
Kind of assay: BIAcore binding of soluble αL I-domains to ICAM-3. Conditions: 1:1 interaction model. The procedure:
as §1

B1: K287C/K294C: human αL (LFA-1) I-domain with K287 and K294 replaced by cysteines; high affinity locked open; tested in intact LFA-1, cell-surface and soluble forms (protein)
chain: GNVDLVFLFDGSMSLQPDEFQKILDFMKDVMKKLSNTSYQFAAVQFSTSYKTEFDFSDYVKRKDPDALLKHVKHMLLLTNTFGAINYVATEVFREELGARPDATKVLIIITDGEATDSGNIDAAKDIIRYIIGIGKHFQTKESQETLHKFASKPASEFVCILDTFECLKDLFTELQKKIY
notes: human αL (LFA-1) I-domain with K287 and K294 replaced by cysteines; tested in intact LFA-1, cell-surface and soluble forms
With B1, in assay [1] (injection of I-domain), the “firm adhesion of T-lymphocytes to high endothelial venules” value is reported as “effectively blocked”; the “lymphocyte rolling mediated by L-selectin and PNAd” value is listed as “not compromised”. Also, the Fraction transmigration entry in assay [1] (intra-arterial I-domain 10 μg/g) is given as “− (−: 0%)”. Further, the “Fraction Rolling” value in assay [1] (intra-arterial I-domain 10 μg/g 5 minutes before T-GFP cell injection) is listed as “++++ (++++: 60-80%)”. In addition, the Fraction firm adhesion result in assay [1] (intra-arterial I-domain 10 μg/g, adherent >20 seconds) is “± (.+−.: 0-5%)”. In addition, in the assay with ICAM-2, the “Koff, open I-domain binding to ICAM-2” value is 0.0118 s⁻¹ and the “Kon, open I-domain binding to ICAM-2” value is 23000 M⁻¹ s⁻¹. In addition, in assay [2], the “inhibition of adhesion of LFA-1 expressing cells to immobilized ICAM-1” value is given as “strongly inhibited”. Also, in the assay with ICAM-3, the “Koff, open I-domain binding to ICAM-3” value is 0.0749 s⁻¹ and the “Kon, open I-domain binding to ICAM-3” value was 19000 M⁻¹ s⁻¹.

These data come from US8241627B2, “Modified polypeptides stabilized in a desired conformation and methods for producing same” (The Center for Blood Research, Inc., priority 2000, dated 2012).
